Assay results from article PMC5240567, “New Insights into Cooperative Binding of Homeodomain Transcription Factors PREP1 and PBX1 to DNA”.
Positions count from the first letter of the chain named.

Columns and labels:
HOXB1HD;PBX1HD [1] = target: T1, HOXB1HD;PBX1HD (;, UniProt P14653;P40424 171-266;227-317, |); assay: fluorescence polarization; HOXB1HD titrated into preformed PBX1HD:PH; FP and EMSA: 20 mM Na/K phosphate pH 7.2, 150 mM NaCl, 5% glycerol, 1 mM TCEP, room temperature (FP 9 nM DNA, 30 min; EMSA gel run at 4 C in 0.5x TBE); NMR: 20; conditions: protein: recombinant;recombinant; tags: GST cleaved (pGEX-6P);GST cleaved (pGEX-6P); copies: 1;1; label: 5' 6-FAM (FP); unlabeled in EMSA
T1 sequence (P14653 171-266, chain 1 of 2, one chain of several): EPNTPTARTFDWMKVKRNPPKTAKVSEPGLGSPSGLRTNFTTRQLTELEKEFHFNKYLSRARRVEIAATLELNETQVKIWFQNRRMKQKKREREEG

PREP1HD KKKK->AAAA = target: T2, PREP1HD KKKK->AAAA (UniProt P55347 240-344, K331A;K333A;K334A;K335A); assay: fluorescence polarization; FP and EMSA: 20 mM Na/K phosphate pH 7.2, 150 mM NaCl, 5% glycerol, 1 mM TCEP, room temperature (FP 9 nM DNA, 30 min; EMSA gel run at 4 C in 0.5x TBE); NMR: 20; conditions: protein: recombinant; tags: GST cleaved (pGEX-6P); label: 5' 6-FAM (FP); unlabeled in EMSA and NMR
T2 sequence: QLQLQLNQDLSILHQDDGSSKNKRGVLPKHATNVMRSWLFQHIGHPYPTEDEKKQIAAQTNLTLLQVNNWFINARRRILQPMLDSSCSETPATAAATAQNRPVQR

PREP1hd;PBX1HD [2] = target: T3, PREP1hd;PBX1HD (;, UniProt P55347;P40424 257-325;227-317, |); assay: fluorescence polarization; PREP1hd titrated into preformed PBX1HD (0.3 uM):PMH; FP and EMSA: 20 mM Na/K phosphate pH 7.2, 150 mM NaCl, 5% glycerol, 1 mM TCEP, room temperature (FP 9 nM DNA, 30 min; EMSA gel run at 4 C in 0.5x TBE); NMR: 20; conditions: protein: recombinant;recombinant; tags: GST cleaved (pGEX-6P);GST cleaved (pGEX-6P); copies: 1;1; label: 5' 6-FAM (FP); unlabeled in EMSA and NMR
T3 sequence 1: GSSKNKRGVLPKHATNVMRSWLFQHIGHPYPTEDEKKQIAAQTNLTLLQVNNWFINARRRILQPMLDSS
T3 sequence 2: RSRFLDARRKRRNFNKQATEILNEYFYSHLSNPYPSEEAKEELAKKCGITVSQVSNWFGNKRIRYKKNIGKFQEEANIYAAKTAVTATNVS

HOXB1HD;PBX1HD [3] = target: T1, HOXB1HD;PBX1HD; assay: fluorescence polarization; HOXB1HD titrated into preformed PBX1HD:PMH; FP and EMSA: 20 mM Na/K phosphate pH 7.2, 150 mM NaCl, 5% glycerol, 1 mM TCEP, room temperature (FP 9 nM DNA, 30 min; EMSA gel run at 4 C in 0.5x TBE); NMR: 20; conditions: protein: recombinant;recombinant; tags: GST cleaved (pGEX-6P);GST cleaved (pGEX-6P); copies: 1;1; label: 5' 6-FAM (FP); unlabeled in EMSA and NMR
PREP1HD;PBX1HD [4] = target: T4, PREP1HD;PBX1HD (;, UniProt P55347;P40424 240-344;227-317, |); assay: fluorescence polarization; PREP1HD titrated into preformed PBX1HD (0.3 uM):PMH; FP and EMSA: 20 mM Na/K phosphate pH 7.2, 150 mM NaCl, 5% glycerol, 1 mM TCEP, room temperature (FP 9 nM DNA, 30 min; EMSA gel run at 4 C in 0.5x TBE); NMR: 20; conditions: protein: recombinant;recombinant; tags: GST cleaved (pGEX-6P);GST cleaved (pGEX-6P); copies: 1;1; label: 5' 6-FAM (FP); unlabeled in EMSA and NMR
T4 sequence 1: T2 sequence with A92K, A94K, A95K, A96K
T4 sequence 2: T3 sequence 2

HOXB1HD;PBX1HD [5] = target: T1, HOXB1HD;PBX1HD; assay: fluorescence polarization; HOXB1HD titrated into preformed PBX1HD:control; FP and EMSA: 20 mM Na/K phosphate pH 7.2, 150 mM NaCl, 5% glycerol, 1 mM TCEP, room temperature (FP 9 nM DNA, 30 min; EMSA gel run at 4 C in 0.5x TBE); NMR: 20; conditions: protein: recombinant;recombinant; tags: GST cleaved (pGEX-6P);GST cleaved (pGEX-6P); copies: 1;1; label: 5' 6-FAM (FP); unlabeled in EMSA

B1: PH (dsDNA)
DNA 1: AGAGTGATTGATAAGG
DNA 2: CCTTATCAATCACTCT
- Kd (HOXB1HD;PBX1HD [1]): 0.39 ± 0.1 µM

B2: PMH (dsDNA)
DNA 1: AGTGATTGACAGATTC
DNA 2: GAATCTGTCAATCACT
- Kd (PREP1HD KKKK->AAAA): 21.8 ± 0.8 µM
- Kd (PREP1hd;PBX1HD [2]): 5.1 ± 1.8 µM
- Kd (HOXB1HD;PBX1HD [3]): 1.3 ± 0.3 µM
- Kd (PREP1HD;PBX1HD [4]): 1.9 ± 0.5 µM

B3: Control (dsDNA)
DNA 1: AGGATAACCTGGGATT
DNA 2: AATCCCAGGTTATCCT
- Kd (HOXB1HD;PBX1HD [5]): 34.7 ± 1.7 µM
